The results in this text go back to PMC11603049.

The target of this series is MARV NPcore (VP35 NPBP removed by TEV) (Marburg virus (Mt. Elgon-Musoke strain), UniProt P27588 1-430).
Sequence of MARV NPcore (VP35 NPBP removed by TEV) (P27588 1-430): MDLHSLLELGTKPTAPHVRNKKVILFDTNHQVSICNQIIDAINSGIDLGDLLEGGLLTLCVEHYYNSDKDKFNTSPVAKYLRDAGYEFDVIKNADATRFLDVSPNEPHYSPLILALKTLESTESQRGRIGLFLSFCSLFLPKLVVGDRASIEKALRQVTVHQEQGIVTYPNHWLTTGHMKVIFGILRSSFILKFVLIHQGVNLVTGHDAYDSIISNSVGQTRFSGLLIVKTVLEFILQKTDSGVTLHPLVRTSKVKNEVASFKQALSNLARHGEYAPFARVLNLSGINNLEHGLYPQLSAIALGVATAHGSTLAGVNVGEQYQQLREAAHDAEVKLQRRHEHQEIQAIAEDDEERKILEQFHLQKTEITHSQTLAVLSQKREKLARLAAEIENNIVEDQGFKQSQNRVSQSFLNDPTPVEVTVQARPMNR

For the molecule AGACACACAAAAACAAGA (ssRNA) [18 nt ssRNA, first 18 bases of the MARV genome], the binding result is “binds”.
